The values below come from patent publication US20020062008A1.

Assay [1] has as its target soluble ICAM-R/IgG1 fusion protein (UniProt P32942). Nature of the assay: ELISA, soluble integrin supernatant on immobilized ICAM-R/Ig, non-blocking antibody detection. On the technique in general: ELISA stands for enzyme-linked immunosorbent assay.
Assay [2] addresses immobilized CD11b/CD18 (UniProt P05107). Put plainly: ELISA as printed: αd/CD18 and immobilized CD11b/CD18.
Assay [3] addresses LFA-1 leucine zipper fusion protein (soluble CD11a/CD18) (UniProt P20701). Nature of the assay: ELISA as printed: αd/CD18 and immobilized CD11a/CD18.
Assay [4] has as its target recombinant VCAM-1 (commercial preparation, R & D Systems), immobilized (UniProt P19320). Nature of the assay: cell-based or functional assay.
Assay [5] deals with two domain VCAM-1/Fc with substitution at residue 40 (UniProt P19320). Put plainly: adhesion of αdβ2 CHO cells to immobilized mutant VCAM-1/Fc.
Chain of two domain VCAM-1/Fc with substitution at residue 40 (P19320 25-220): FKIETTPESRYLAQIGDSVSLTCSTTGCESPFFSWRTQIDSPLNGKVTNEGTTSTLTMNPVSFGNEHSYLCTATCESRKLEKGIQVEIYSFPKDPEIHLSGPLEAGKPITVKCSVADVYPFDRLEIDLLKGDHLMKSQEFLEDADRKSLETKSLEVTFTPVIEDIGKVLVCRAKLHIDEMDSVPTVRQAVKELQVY

Chain of recombinant VCAM-1 (commercial preparation, R & D Systems), immobilized (P19320 25-698 limits assumed): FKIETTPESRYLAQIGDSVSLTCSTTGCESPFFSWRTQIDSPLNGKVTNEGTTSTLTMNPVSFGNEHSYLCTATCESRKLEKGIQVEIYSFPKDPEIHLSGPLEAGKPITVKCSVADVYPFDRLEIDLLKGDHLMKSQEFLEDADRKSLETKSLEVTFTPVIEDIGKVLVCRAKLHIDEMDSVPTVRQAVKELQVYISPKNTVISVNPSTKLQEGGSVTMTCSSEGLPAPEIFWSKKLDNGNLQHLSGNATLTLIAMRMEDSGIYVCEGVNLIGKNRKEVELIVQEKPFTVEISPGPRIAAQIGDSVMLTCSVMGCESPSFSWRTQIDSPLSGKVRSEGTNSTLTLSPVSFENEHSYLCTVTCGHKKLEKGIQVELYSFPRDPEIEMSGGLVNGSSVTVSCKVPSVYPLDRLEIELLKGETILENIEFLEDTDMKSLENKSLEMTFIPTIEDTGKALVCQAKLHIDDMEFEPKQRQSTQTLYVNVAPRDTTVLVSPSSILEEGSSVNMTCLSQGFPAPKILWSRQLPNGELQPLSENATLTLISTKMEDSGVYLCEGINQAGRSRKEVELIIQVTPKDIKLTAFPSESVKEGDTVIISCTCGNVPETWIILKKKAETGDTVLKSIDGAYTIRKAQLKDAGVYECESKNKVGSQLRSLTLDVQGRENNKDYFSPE
Chain of soluble ICAM-R/IgG1 fusion protein (P32942 30-485 limits assumed): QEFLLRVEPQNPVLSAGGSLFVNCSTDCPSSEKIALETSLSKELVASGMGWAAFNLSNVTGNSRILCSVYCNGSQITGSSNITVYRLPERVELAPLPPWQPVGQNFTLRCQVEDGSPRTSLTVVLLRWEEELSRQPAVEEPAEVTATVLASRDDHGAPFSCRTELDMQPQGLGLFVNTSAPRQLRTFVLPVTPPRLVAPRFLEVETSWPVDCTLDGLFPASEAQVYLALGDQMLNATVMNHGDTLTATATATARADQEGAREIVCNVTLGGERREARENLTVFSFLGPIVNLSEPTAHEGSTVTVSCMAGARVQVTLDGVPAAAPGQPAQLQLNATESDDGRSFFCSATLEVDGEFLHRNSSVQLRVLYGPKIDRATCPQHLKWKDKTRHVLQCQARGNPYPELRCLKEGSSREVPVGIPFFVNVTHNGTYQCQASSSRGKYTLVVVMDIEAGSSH

“soluble human αd/CD18 leucine zipper heterodimer (from UniProt P05107 23-700) (receptor)”: in assay [1], the fold greater than control well amounted to 10 fold. In addition, the fold greater than background binding in assay [2] turned out to be 15 fold; in assay [3] it was 5 fold.
Consider “α4 integrins on human eosinophils (from UniProt P13612 34-1032; P05556 21-798) (receptor)”, for which the binding rate of IL-5 cultured eosinophils to immobilized VCAM-1 in the presence of a monoclonal antibody against α4 in assay [4] was determined as 18.1%.
In assay [5], “human αd/CD18 heterodimer expressed on transfected cells (COS, CHO, JY) (from UniProt P05107 23-769) (receptor)” gave a binding relative to wild-type VCAM-1 of 50%.
